Experiments:
Type in all cases: biochemical
EphA2 = EphA2 (Homo sapiens, UniProt P29317); experiment: TR-FRET kinase assay, EphA2; details: Kinase Concentration 0.25 nM; 50 nM ULight-labeled substrate, 200 micromolar ATP, 2 hours
Experimental: (§1) TR-FRET kinase assays are performed under standardized conditions: various individual kinases are incubated with 50 nM of kinase substrate BRB1 labeled with the TR-FRET acceptor dye ULight (PerkinElmer) and 200 micromolar ATP in 10 μL of kinase assay buffer (50 mM HEPES pH7.5, 10 mM MgCl2, 3 mM MnCl2, 1 mM EGTA, 2 mM DTT and 0.01% Tween-20) for 2 hours at room temperature. Reactions are stopped with EDTA, and anti-phospho-tyrosine antibodies (clone PT66) labeled with the TR-FRET europium chelate donor dye are added to a final concentration of 2 nM in a final volume of 20 μL. The TR-FRET signal emitted at 665 nm is read one hour after the addition of antibodies using a TR-FRET plate reader such as the Envision® Multilabel Plate reader (PerkinElmer). The emitted signal at 665 nm is proportional to the extent of peptide phosphorylation, Control reactions indicative of background are performed excluding ATP from the reaction.
(§2) Assay conditions are identical to those used described for FIG. 1.

DDR1 = DDR1 (Homo sapiens, UniProt Q08345); experiment: TR-FRET kinase assay, DDR1; details: Kinase Concentration 0.5 nM; 50 nM ULight-labeled substrate, 200 micromolar ATP, 2 hours
Experimental: as §1, §2

CTK = biological target: T1, CTK (Homo sapiens, UniProt P42679); experiment: TR-FRET kinase assay, CTK; details: Kinase Concentration 20 nM; 50 nM ULight-labeled substrate, 200 micromolar ATP, 2 hours
T1 sequence (P42679 1-507): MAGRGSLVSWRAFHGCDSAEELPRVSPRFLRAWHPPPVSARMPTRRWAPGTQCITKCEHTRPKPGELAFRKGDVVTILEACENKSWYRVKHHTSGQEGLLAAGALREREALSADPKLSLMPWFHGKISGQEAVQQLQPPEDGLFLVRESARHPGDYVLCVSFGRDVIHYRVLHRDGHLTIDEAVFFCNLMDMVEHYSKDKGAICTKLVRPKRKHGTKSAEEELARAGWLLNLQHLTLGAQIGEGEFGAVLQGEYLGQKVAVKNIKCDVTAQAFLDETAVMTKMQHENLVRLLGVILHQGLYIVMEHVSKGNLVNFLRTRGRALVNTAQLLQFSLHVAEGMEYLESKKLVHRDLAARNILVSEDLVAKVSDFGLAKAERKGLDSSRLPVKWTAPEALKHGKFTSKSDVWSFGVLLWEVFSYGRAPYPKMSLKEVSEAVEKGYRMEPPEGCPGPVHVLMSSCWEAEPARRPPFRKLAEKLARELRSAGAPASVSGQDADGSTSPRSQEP
Experimental: as §1, §2

INSR = INSR (Homo sapiens, UniProt P06213); experiment: TR-FRET kinase assay, INSR; details: Kinase Concentration 20 nM; 50 nM ULight-labeled substrate, 200 micromolar ATP, 2 hours
Experimental: as §1, §2

JAK1 = JAK1 (Homo sapiens, UniProt P23458); experiment: TR-FRET kinase assay, JAK1; details: Kinase Concentration 7 nM; 50 nM ULight-labeled substrate, 200 micromolar ATP, 2 hours
Experimental: as §1, §2

ABL [T315I] (ABL1) = ABL [T315I] (ABL1) (Homo sapiens, UniProt P00519, T315I); experiment: TR-FRET kinase assay, ABL [T315I]; details: Kinase Concentration 0.5 nM; 50 nM ULight-labeled substrate, 200 micromolar ATP, 2 hours
Experimental: as §1, §2

ITK = biological target: T2, ITK (Homo sapiens, UniProt Q08881); experiment: TR-FRET kinase assay, ITK; details: Kinase Concentration 0.5 nM; 50 nM ULight-labeled substrate, 200 micromolar ATP, 2 hours
T2 sequence (Q08881 1-620): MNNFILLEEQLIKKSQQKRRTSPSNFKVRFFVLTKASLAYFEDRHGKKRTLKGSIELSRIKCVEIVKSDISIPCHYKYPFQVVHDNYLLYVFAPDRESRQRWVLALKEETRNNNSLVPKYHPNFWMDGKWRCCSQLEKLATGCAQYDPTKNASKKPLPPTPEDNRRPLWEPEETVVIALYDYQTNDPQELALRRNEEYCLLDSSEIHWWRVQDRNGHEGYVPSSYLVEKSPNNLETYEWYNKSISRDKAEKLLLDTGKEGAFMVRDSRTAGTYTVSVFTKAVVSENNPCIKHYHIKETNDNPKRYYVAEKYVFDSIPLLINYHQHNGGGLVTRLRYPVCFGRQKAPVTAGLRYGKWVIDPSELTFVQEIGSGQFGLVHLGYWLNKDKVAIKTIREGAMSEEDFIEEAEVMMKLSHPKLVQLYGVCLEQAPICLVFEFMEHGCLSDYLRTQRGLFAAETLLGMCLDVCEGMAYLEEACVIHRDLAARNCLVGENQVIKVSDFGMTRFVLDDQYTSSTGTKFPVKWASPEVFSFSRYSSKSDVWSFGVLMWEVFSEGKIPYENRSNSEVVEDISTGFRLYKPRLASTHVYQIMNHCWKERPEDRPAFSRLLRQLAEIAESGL
Experimental: as §1, §2

BLK = BLK (Homo sapiens, UniProt P51451); experiment: TR-FRET kinase assay, BLK; details: Kinase Concentration 0.5 nM; 50 nM ULight-labeled substrate, 200 micromolar ATP, 2 hours
Experimental: as §1, §2

EGFR = EGFR (Homo sapiens, UniProt P00533); experiment: TR-FRET kinase assay, EGFR; details: Kinase Concentration 0.5 nM; 50 nM ULight-labeled substrate, 200 micromolar ATP, 2 hours
Experimental: as §1, §2

FGR = FGR (Homo sapiens, UniProt P09769); experiment: TR-FRET kinase assay, FGR; details: Kinase Concentration 0.1 nM; 50 nM ULight-labeled substrate, 200 micromolar ATP, 2 hours
Experimental: as §1, §2

FGFR1 = FGFR1 (Homo sapiens, UniProt P11362); experiment: TR-FRET kinase assay, FGFR1; details: Kinase Concentration 0.5 nM; 50 nM ULight-labeled substrate, 200 micromolar ATP, 2 hours
Experimental: as §1, §2

EphA7 = EphA7 (Homo sapiens, UniProt Q15375); experiment: TR-FRET kinase assay, EphA7; details: Kinase Concentration 0.5 nM; 50 nM ULight-labeled substrate, 200 micromolar ATP, 2 hours
Experimental: as §1, §2

FGFR2 = FGFR2 (Homo sapiens, UniProt P21802); experiment: TR-FRET kinase assay, FGFR2; details: Kinase Concentration 0.25 nM; 50 nM ULight-labeled substrate, 200 micromolar ATP, 2 hours
Experimental: as §1, §2

FGFR1, sequence (P11362 22-822, species assumed): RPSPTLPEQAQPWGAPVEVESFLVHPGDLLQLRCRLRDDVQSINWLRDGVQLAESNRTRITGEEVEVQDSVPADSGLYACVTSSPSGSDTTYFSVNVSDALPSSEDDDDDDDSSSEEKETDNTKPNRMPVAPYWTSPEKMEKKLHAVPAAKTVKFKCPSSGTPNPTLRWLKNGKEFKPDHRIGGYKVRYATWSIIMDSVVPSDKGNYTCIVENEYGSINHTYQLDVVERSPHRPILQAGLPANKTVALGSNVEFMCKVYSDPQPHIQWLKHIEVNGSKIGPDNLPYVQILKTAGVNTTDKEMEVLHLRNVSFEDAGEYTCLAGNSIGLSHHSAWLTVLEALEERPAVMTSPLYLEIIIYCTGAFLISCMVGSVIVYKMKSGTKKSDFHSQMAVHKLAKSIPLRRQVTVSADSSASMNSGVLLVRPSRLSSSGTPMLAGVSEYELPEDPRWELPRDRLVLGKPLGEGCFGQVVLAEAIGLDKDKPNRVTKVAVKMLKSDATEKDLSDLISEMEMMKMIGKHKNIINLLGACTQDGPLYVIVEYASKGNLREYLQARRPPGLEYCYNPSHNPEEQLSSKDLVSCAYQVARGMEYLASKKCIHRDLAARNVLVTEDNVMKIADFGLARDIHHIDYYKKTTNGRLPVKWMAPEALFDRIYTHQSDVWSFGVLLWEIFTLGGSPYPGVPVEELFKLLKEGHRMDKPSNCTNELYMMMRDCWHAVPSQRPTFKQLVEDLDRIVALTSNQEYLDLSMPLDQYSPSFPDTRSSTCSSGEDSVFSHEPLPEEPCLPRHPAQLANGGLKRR
BLK, sequence (P51451 whole entry, species assumed): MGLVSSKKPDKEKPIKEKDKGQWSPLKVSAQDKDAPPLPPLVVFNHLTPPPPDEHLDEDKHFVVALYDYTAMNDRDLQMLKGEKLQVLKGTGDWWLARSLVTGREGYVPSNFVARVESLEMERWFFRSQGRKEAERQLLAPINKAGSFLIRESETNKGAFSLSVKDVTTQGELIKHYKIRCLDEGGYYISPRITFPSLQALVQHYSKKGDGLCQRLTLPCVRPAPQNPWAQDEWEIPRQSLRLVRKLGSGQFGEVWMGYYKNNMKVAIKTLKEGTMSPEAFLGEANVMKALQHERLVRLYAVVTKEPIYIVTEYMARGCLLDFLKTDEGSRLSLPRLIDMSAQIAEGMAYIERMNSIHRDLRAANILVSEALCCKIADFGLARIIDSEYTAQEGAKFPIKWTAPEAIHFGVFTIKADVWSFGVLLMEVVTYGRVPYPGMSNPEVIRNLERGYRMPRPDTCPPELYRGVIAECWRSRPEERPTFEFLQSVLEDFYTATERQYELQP
JAK1, sequence (P23458 whole entry, species assumed): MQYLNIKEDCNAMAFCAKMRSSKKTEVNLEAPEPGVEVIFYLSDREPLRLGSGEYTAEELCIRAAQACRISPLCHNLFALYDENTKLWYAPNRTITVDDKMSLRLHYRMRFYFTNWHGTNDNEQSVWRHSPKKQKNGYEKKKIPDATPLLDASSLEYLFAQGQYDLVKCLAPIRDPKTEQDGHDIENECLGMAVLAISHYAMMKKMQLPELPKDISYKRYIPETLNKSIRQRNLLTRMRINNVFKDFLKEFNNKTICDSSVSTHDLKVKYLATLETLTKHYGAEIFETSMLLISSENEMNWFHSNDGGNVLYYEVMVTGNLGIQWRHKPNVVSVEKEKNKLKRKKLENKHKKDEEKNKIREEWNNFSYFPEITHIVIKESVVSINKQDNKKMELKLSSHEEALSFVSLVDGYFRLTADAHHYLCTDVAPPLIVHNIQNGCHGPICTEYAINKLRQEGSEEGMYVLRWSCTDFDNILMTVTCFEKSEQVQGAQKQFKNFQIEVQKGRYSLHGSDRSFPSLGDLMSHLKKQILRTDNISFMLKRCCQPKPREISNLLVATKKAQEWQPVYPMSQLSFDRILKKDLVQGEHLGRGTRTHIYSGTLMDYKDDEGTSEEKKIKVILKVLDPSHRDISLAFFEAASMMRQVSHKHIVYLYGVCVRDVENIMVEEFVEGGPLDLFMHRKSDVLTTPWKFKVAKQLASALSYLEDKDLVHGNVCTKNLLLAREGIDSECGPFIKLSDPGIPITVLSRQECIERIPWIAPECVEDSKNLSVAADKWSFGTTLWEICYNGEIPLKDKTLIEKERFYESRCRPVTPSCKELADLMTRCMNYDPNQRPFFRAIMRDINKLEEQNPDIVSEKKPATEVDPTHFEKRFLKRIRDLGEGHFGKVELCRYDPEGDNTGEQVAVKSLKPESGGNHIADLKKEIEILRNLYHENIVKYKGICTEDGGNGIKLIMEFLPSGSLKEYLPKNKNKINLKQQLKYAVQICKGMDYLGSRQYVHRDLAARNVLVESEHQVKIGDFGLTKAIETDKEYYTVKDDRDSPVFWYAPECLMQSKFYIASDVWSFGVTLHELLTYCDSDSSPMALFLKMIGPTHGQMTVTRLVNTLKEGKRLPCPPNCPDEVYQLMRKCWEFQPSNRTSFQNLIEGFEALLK
EphA7, sequence (Q15375 28-998, species assumed): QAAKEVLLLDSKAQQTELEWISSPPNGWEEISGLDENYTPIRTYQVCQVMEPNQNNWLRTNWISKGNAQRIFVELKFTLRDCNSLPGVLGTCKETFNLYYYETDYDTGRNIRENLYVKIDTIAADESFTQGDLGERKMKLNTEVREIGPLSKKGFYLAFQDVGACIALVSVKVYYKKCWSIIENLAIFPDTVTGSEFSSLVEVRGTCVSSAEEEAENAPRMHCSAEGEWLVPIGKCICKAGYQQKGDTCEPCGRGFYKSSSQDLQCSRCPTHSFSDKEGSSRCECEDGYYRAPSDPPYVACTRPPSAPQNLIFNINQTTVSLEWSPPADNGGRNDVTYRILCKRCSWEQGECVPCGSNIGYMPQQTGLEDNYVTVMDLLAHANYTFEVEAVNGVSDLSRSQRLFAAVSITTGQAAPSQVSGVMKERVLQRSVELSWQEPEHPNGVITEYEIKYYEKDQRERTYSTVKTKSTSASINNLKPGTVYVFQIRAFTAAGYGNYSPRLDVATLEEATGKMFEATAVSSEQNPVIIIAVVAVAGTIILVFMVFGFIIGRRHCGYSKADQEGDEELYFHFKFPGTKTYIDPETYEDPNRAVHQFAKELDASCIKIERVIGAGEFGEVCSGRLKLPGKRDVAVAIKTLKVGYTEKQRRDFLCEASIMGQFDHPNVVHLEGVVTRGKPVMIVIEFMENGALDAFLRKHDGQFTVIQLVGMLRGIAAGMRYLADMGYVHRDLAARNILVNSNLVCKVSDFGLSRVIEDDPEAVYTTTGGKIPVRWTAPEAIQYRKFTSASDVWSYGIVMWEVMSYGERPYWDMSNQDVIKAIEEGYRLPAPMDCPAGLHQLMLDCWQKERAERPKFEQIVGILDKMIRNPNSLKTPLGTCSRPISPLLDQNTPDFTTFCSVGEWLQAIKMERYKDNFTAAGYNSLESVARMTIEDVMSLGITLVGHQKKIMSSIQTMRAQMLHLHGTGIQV
DDR1, sequence (Q08345 19-913, species assumed): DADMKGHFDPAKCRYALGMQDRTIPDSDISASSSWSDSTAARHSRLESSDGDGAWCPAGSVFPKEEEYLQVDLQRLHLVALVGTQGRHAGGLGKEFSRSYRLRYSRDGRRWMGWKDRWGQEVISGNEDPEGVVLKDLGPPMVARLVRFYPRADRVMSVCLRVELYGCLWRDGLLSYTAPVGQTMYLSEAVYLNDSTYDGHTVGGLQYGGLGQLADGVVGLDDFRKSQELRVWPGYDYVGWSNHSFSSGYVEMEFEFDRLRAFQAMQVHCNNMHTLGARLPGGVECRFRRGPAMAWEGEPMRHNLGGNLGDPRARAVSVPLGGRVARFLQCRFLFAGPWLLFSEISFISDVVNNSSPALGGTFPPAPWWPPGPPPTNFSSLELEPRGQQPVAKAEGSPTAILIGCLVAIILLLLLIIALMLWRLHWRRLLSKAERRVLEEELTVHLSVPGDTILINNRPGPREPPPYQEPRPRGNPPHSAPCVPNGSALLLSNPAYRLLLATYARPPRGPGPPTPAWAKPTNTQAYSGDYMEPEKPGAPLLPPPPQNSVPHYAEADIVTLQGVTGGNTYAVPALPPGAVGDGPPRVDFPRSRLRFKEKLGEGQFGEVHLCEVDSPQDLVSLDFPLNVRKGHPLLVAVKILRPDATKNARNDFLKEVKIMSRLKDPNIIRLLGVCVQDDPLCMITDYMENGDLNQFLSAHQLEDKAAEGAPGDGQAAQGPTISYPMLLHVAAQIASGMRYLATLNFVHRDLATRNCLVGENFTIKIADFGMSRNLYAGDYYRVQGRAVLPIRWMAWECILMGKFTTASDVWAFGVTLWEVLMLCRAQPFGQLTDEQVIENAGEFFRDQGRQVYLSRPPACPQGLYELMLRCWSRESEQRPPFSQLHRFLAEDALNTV

## C AYE AYE AYE K EYA EYA EYA K AYA EYE R (CAYEAYEAYEKEYAEYAEYAKAYAEYER; tyrosine kinase substrate peptide) [BRB1]
EphA2
  Signal to Noise ratio with BRB1 Peptide: 26.9
DDR1
  Signal to Noise ratio with BRB1 Peptide: 1.0
CTK
  Signal to Noise ratio with BRB1 Peptide: 2.5
INSR
  Signal to Noise ratio with BRB1 Peptide: 4.0
JAK1
  Signal to Noise ratio with BRB1 Peptide: 13.7
ABL [T315I] (ABL1)
  Signal to Noise ratio with BRB1 Peptide: 4.8
ITK
  Signal to Noise ratio with BRB1 Peptide: 8.4
BLK
  Signal to Noise ratio with BRB1 Peptide: 31.0
EGFR
  Signal to Noise ratio with BRB1 Peptide: 10.0
FGR
  Signal to Noise ratio with BRB1 Peptide: 29.3
FGFR1
  Signal to Noise ratio with BRB1 Peptide: 26.4
EphA7
  Signal to Noise ratio with BRB1 Peptide: 17.2
FGFR2
  Signal to Noise ratio with BRB1 Peptide: 27.1

Source: US8242083B2, “Kinase substrates” (PerkinElmer Health Sciences, Inc., priority 2008, dated 2012)
